Data taken from the DeepSol protein solubility set.

Experiment: soluble on expression in E. coli; label from the status in PepcDB or PDB records
For “MAKSLLFITSFLKPRYNKPIMEKNWNVGTKYLNDKTRIIVVGITGREASQVVTESEALYPGFIKVGVTPGKGGTEVAGVPVFNTVKEALSSPEGKDVNTGLVYVPPASVKDAVIELIDAGIKLIYIVTEHVPIRDTVYFYHYAKERGVTIVGPTSLGCIVPRIPARIGAIGGKNPSIAYADGGLVILSKSGGLTTTTAEMFKRRGWGVYMALALGGDVISCTTFADVLEEIADDPNVKGVVIQGEVGGTYEEQAAETILRLYKEGRWNKPVAAFVAGKFQEKMEGVSFGHAGAIVERGKGKATDKIRMFNEVGKETGLVKVAEFYHDLVNCIEELGVPRDFEDSTPGGKVEPLYRTIDPETCEFKPQD”, the “soluble on expression in E. coli” value was “soluble”. In the case of “MAKSRTIYVCAECGGTSLKWQGKCPHCSAWNTLEETVESAAPSAGGHRYAPLAAASPVRSLSEIEARETPRQPTGLDEFDRVLGGGLVAGAVVLIGGDPGIGKSTLLLQALASLSATTKVLYVTGEESAEQVALRARRLGLQTGNVDLLAEIRLEAIQAAVSEQKPTVAVIDSIQTLYSGELTAAPGSVSQVRECAAQLTRLAKQTGIAIVMIGHVTKDGALAGPRVLEHIVDTVLYFEGDTHSSFRLVRAFKNRFGAVNELGVFAMTDRGLRGVANPSALFLSQHQQQVAGSCVLATQEGTRPLLVEVQALVDTSHAPNPRRLTVGLEGNRLAMLLAVMHRHAGVSTYDQDVFVNAVGGVRITEPAADLPVLLAIMSSLRDKPLPAGLVAFGEIGLAGEIRPAPRGQERLREAAKLGFSVALIPKANAPRQPIEGLEIWAVDRLDAALDKLRLEHHHHHH”, the “soluble on expression in E. coli” value is reported as “soluble”. For “MAKSTVRYVCSACGAVSLKYQGRCFECQSWGTLVETHLEEPDAKVRKKRPAGSMPEVQNLDDDAPSGFHRTLTGIGELDRVLGGGLMEASAILVGGEPGIGKSTLMLQLVPRLAGKKVLYVAGEESPNQIRERARRLSIKAPNLRLVSEVALERILDAIANEQPEMVIVDSIQTVYSSDYQSSAGTITQIRECAASLIRAAKEQNFILLIIGHITKEGSLAGPKALEHMVDTVVQFEGENYQRYRIIRSVKNRFGPTNEIGVFKMGEEGLTEVSNPSEFFISDRRTDVPGTAVLAGIEGSRALMVEVQALVSRTGYSMPQRISTGFDLKRIAIILAVLEKRLQFQTAGQDVFVKIAGGLKLVEPAADLAIAAAVASGLQDKPCNPTACCCGEIGLSGELRAISDGERRIREAVHLGFTSIVLPESNTRELKPSLKKLPIRIAGCRTLHEALEAMGV”, the “soluble on expression in E. coli” value was “not soluble”. In the case of “MAKTLYEKLFDAHVVYEAENETPLLYIDRHLVHEVTSPQAFDGLRAHGRPVRQPGKTFATMDHNVSTQTKDINACGEMARIQMQELIKNCKEFGVELYDLNHPYQGIVHVMGPEQGVTLPGMTIVCGDSHTATHGAFGALAFGIGTSEVEHVLATQTLKQGRAKTMKIEVQGKAAPGITAKDIVLAIIGKTGSAGGTGHVVEFCGEAIRDLSMEGRMTLCNMAIEMGAKAGLVAPDETTFNYVKGRLHAPKGKDFDDAVAYWKTLQTDEGATFDTVVTLQAEEISPQVTWGTNPGQVISVNDNIPDPASFADPVERASAEKALAYMGLKPGIPLTEVAIDKVFIGSCTNSRIEDLRAAAEIAKGRKVAPGVQALVVPGSGPVKAQAEAEGLDKIFIEAGFEWRLPGCSMCLAMNNDRLNPGERCASTSNRNFEGRQGRGGRTHLVSPAMAAAAAVTGHFADIRNIK”, the “soluble on expression in E. coli” value is reported as “soluble”. In the case of “MAKTPGLNLSISERASNRLAEIYRNSKENLRISVESGGCHGFQYNLTLEPATKPDIKNDVKDKEFSDDLDDDDSKDIIYVLPEDKGRVIIDSKSLNILNNTTLTYTNELIGSSFKIINGSLKSSCGCGSSFDIEN”, the “soluble on expression in E. coli” value is reported as “not soluble”. In the case of “MALARANSPQEALLWALNDLEENSFKTLKFHLRDVTQFHLARGELESLSQVDLASKLISMYGAQEAVRVVSRSLLAMNLMELVDYLNQVCLNDYREIYREHV”, the “soluble on expression in E. coli” value is reported as “soluble”. With “MALASAADFFAQQHPSYGRHIGQLYERAVKNDLSFTHTFVNPQVNRSLGYMEEDGEPIAAKVVRETADGLIIKGARLLATQGGMTDELLVLPAGGALLGDEYMYAFSIPSNAPGLKFVCRPSLAAGALVFDAPLSSRFDEIDAMVVFDEVLVPWDRVFFYKNAWFAKEMEEETHLAIMLLHQVLARRIVKTEFFLGTVELLSEAIQIGGYQHVQEKIGEIAAALEALRGMLLASELHAKPDRRGTMVPDPAPLYAAAFLYPRLYPRFADIIQLLGASGLVCLPTEADFSSPLRPDLDRYLQAATLPAEQRVRLFRFAWDMAMSAFGTRQTLYERFFFGDPARFATTFYHRYDREACAEIVRQFLDSEQR” the “soluble on expression in E. coli” value was “not soluble”.
